Where a chain is given by its changes, count along the chain named. One block for each molecule: values may come before it.
Key:
Fe65 = target: T1, Fe65 (UniProt O00213 1-710, limits assumed); assay: GST pull down of in vitro translated Fe65
T1 construct: also called Fe65 adaptor protein; in vitro translated Fe65
T1 sequence (looked up): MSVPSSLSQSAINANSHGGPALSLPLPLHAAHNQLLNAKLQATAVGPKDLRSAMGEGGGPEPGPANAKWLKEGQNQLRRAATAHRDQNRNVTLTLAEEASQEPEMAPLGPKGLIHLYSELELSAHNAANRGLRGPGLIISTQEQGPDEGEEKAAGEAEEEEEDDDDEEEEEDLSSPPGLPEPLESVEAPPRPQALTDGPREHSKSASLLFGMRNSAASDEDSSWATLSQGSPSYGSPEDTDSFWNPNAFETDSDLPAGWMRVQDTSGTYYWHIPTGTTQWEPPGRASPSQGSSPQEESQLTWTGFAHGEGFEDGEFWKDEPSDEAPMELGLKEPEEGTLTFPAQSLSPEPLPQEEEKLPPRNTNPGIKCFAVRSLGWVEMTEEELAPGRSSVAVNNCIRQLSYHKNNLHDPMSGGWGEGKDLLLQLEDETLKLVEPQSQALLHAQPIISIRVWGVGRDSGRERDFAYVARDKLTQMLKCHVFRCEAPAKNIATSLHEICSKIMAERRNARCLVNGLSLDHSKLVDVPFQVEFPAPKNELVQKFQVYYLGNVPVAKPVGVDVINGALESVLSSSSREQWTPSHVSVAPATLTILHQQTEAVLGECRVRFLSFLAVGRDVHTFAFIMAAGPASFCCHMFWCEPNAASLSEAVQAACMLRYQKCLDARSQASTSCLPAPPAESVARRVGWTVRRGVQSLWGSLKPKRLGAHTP

Aβ release = conditions: exogenous RAP, cells overexpressing APP751; cited from earlier work
APP processing = assay: Overexpression of Fe65 in APP751-transfected CHO cells, APPs and Aβ; assay type: cell-based; conditions: preliminary studies
Text: In the second set of experiments, Inventors determine whether overexpression of Fe65 impairs APP and LRP processing by acting as a dominant or competitive negative mutant. Inventors briefly mentioned the preliminary results above with APPs and Aβ when Fe65 was overexpressed in APP75 1-transfected CHO cells. These studies are repeated for reliable quantitation and other aspects of APP trafficking are examined, as performed in the earlier aims. Inventors also assess the binding and uptake of LRP ligands. To ascertain that these outcomes are due to inhibition by Fe65, Inventors overexpress Fe65 mutants that cannot bind either APP or LRP, i.e., ΔPID2 and ΔPID 1, respectively. If these mutant constructs mimic the results from full length Fe65 even though it cannot bind it's known substrate, then it supports the idea that Fe65 or Fe65L in excess behaves as an inhibitor. […] The premise is that an overabundance of Fe65 result in the failure to link up limiting amounts of LRP with APP. Thus, co-expression of Fe65 with LRP should greatly diminish the effects of Fe65 expressed by itself In the third set of experiments, Inventors test the concept that other APP and LRP interacting proteins with only single binding sites, such as mDab, X11/Mint-1 and JIP-1, compete for binding with Fe65 or Fe65L, and by displacing Fe65, produce a partial loss of function with respect to APP processing. […]

B4: RAP: 39 kDa receptor associated protein, an LRP chaperone molecule that blocks binding of all known LRP ligands (protein, UniProt P30533 35-357, looked up)
Alpha-2-macroglobulin …: YSREKNQPKPSPKRESGEEFRMEKLNQLWEKAQRLHLPPVRLAELHADLKIQERDELAWKKLKLDGLDEDGEKEARLIRNLNVILAKYGLDGKKDARQVTSNSLSGTQEDGLDDPRLEKLWHKAKTSGKFSGEELDKLWREFLHHKEKVHEYNVLLETLSRTEEIHENVISPSDLSDIKGSVLHSRHTELKEKLRSINQGLDRLRRVSHQGYSTEAEFEEPRVIDLWDLAQSANLTDKELEAFREELKHFEAKIEKHNHYQKQLEIAHEKLRHAESVGDGERVSRSREKHALLEGRTKELGYTVKKHLQDLSGRISRARHNEL
Aβ release (Aβ release): dramatically reduced

B5: Fe65: cytosolic adaptor protein with separate binding domains (PID1, PID2) for LRP and APP, overexpressed in cells (protein)
chain: T1 sequence (looked up)
APPs secretion (APP processing): augmented
Aβ release (APP processing): reduction

Second part, the molecule after the results:

reduction of binding against wild type LRP (Fe65): > 50%
B1: GST fusion protein of the LRP cytoplasmic tail with a single alanine substitution at L of the YATL motif (other, not shown: a dimerising Fc or GST; small tags and cut ends)
chain: KRRVQGAKGFQHQRMTNGAMNVEIGNPTYKMYEGGEPDDVGGLLDADFALDPDKPTNFTNPVYATAYMGGHGSRHSLASTDEKRELLGRGPEDEIGDPLA
modifications: N-terminal GST fusion, not carried in the letters
notes: Position 4510 is derived from the motif's printed limits (4504 to 4510)

reduction of binding against wild type LRP (Fe65): > 50%
B2: GST fusion protein of the LRP cytoplasmic tail with a single alanine substitution at N of the second NPXY motif (other, not shown: a dimerising Fc or GST; small tags and cut ends)
chain: B1 chain with N60A, A66L
modifications: N-terminal GST fusion, not carried in the letters
notes: Position 4504 is derived from the motif's printed limits (4504 to 4510)

reduction of binding against wild type LRP (Fe65): > 50%
B3: GST fusion protein of the LRP cytoplasmic tail with a single alanine substitution at Y of the second NPXY motif (other, not shown: a dimerising Fc or GST; small tags and cut ends)
chain: B1 chain with Y63A, A66L
modifications: N-terminal GST fusion, not carried in the letters

From patent US20040038338A1, “Influence of LRP cytoplasmic domain on Abeta production” (priority 2001, published 2004)
